No end group written: not given here.
Experiments:
[1] = tested on: cartilage proteoglycan degradation; conditions: at 100 uM concentrations; cited from earlier work
[2] = molecular target: T1, human liver Cathepsin L (Homo sapiens, UniProt P07711); assay: Cathepsin L assay (fluorescence, Z-Phe-Arg-AMC hydrolysis); assay type: biochemical; set-up: from tissue; b54 says 'human kidney cell cathepsins'
Target sequence in this assay (P07711 114-288 limits assumed): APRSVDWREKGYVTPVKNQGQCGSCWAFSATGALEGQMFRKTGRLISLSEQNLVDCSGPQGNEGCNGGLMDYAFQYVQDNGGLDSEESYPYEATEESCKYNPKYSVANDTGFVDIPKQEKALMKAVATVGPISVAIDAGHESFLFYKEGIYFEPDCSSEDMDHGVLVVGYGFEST
Target sequence in this assay (P07711 292-333 limits assumed): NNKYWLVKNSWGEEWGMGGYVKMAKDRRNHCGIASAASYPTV
Method: A fluorescence based assay was set up according to Barrett and Kirschke (Barrett et al., 1981, Meth. in Enz., 80:535).
After an incubation period of 6 minutes at room temperature, 1500 μl of 0.1% Brij 35 was added. The substrate Z-Phe-Arg-AMC (AMC is aminomethyl-coumarin) was added at a final concentration of either 2.5 μM or 5.0 μM.
The fluorescence of the free aminomethyl-coumarin was measured in an SLM 4800s fluorimeter by excitation at 370 nm and emission at 432 nm over a six minute time period. […] In order to calculate the velocities, a linear least squares analysis was performed over the initial linear part of the data. […]
These peptides were tested for inhibition of Cathepsin L activity using the assays described previously. Briefly, Cathepsin L (19 pM final as determined by active site titration using E-64, Barret & Kirschke, 1991) was added to 750 uL of assay buffer consisting of 340 nM sodium acetate--60 mM acetic acid (pH 5.5), 4 mM disodium EDTA, and 8 mM DTT. […] The fluorescence of the free aminomethylcoumarin was measured in an SLM 4800s fluorimeter at excitation of 370 nm and an emission at 432 nm over a 6 minute time period. Fluorescence was converted to uM AMC released by using a standard curve generated by plotting uM AMC vs. fluorescence, and plotted vs. time. […]

[3] = tested on: articular cartilage explants from calf knee joints; assay: Micro organ culture assay (MOCA): IL-1 induced proteoglycan release from articular cartilage explants; assay type: cell-based; conditions: IL-1 induced degradation; p117 10 uM (best concentration)
From the text: The assay system used for testing the peptides for inhibitory activity of proteoglycan release is a micro organ culture assay (MOCA). Papain; cetyl pyridinium chloride and chondroitin sulfate type C was purchased from Sigma Chemical Co. (St. Louis, Mo.). Interleukin 1 alpha was purchased from Collaborative Research. ABCase, chrondroitinase, ABC lyase, and keratanase were obtained from ICI. Na ^35 SO4 was purchased from NEN.
Articular cartilage explants from calf knee joints were maintained in culture in DMEM medium containing 20 uCi/ml Na ^35 SO4 for 48 hours for the incorporation of label into newly synthesized proteoglycan (PG). The radiolabelled medium was then removed, the radiolabelled explants washed 3×30 ml cold DMEM and placed into a 96 well plate with or without IL-1 (Interleukin-1 alpha, 50 U/ml) and various concentrations of p117. The explants were incubated first for 24 hours in the presence of IL-1 in order to ensure initiation of IL-1 induced auto-catalysis prior to the addition of various metalloprotease inhibitors for an additional 72 hours.
The newly synthesized radiolabelled proteoglycans released during the cultivation period were subjected to enzymatic digestion with papain. […] The filter was dried and counted after addition of 10 mls of scintillation cocktail (scintillant).

[4] = molecular target: T1, human liver Cathepsin L
[5] = molecular target: T1, human liver Cathepsin L; remark: listed apart in the source
[6] = molecular target: T1, human liver Cathepsin L; remark: listed apart in the source
[7] = tested on: cartilage degradation; conditions: rabbits, IL-1 injected into joint capsule; cited from earlier work

CC(C)C[C@H](NC(=O)[C@H]1O[C@@H]1C(=O)O)C(=O)NCCCCN=C(N)N (relative stereo) [E64, trans-epoxysuccinyl-L-leucylamido-(4-guanido)butane]
inhibition of IL-1 stimulated cartilage proteoglycan degradation (in words) [1]: did not work

CC(C)CCNC(=O)[C@H](CC(C)C)NC(=O)[C@H]1O[C@@H]1C(=O)O [Ep475]
inhibition of IL-1 stimulated cartilage proteoglycan degradation (in words) [1]: did not work

YSLDEERHRRLMWEENKKKIEAH [p117]
IC50 ([2]; Cathepsin L 19 pM, 5.0 uM Z-Phe-Arg-NMec(AMC), Dixon plot V-/V+ vs. peptide concentration, read-out: i.c. 50 (synthetic peptides, Cathepsin L)): 5.3 µM | inhibitory activity of the peptides (in words) ([2]; summary in Example 7): best activity | % inhibition of proteoglycan release [3]: about 30%

recombinant (murine) CTLA-2β, dimeric form
i.c. 50 in Cathepsin L Assay [4]: 1.1 nM

recombinant (murine) CTLA-2β, monomeric form
i.c. 50 in Cathepsin L Assay [4]: 18.2 nM | inhibition of hydrolysis of Z-Phe-Arg-AMC by Cathepsin L (fluorescence) [5]: 60%

YSLDEERHRRLMWEENKKKIEAH [p117]
i.c. 50 [6]: 5.3 µM

CRGEMAPDLPEYEDLG [p092]
i.c. 50 [6]: 41 µM

ENKKKIEAHNADYERGKTSFC [p089]
inhibition of hydrolysis of Z-Phe-Arg-NMec(AMC) by Cathepsin L (fluorescence) (% inhibition at 10 uM) [6]: 25

B1: PN-1: large serine protease inhibitor PN-1 (43 KD) (protein, UniProt P07093 20-398, looked up)
Glia-derived nexin: SHFNPLSLEELGSNTGIQVFNQIVKSRPHDNIVISPHGIASVLGMLQLGADGRTKKQLAMVMRYGVNGVGKILKKINKAIVSKKNKDIVTVANAVFVKNASEIEVPFVTRNKDVFQCEVRNVNFEDPASACDSINAWVKNETRDMIDNLLSPDLIDGVLTRLVLVNAVYFKGLWKSRFQPENTKKRTFVAADGKSYQVPMLAQLSVFRCGSTSAPNDLWYNFIELPYHGESISMLIALPTESSTPLSAIIPHISTKTIDSWMSIMVPKRVQVILPKFTAVAQTDLKEPLKVLGITDMFDSSKANFAKITTGSENLHVSHILQKAKIEVSEDGTKASAATTAILIARSSPPWFIVDRPFLFFIRHNPTGAVLFMGQINKP
effect on IL-1 induced cartilage degradation (in words) [7]: can ameliorate this degradation

— patent publication US5973110A, “Cytotoxic T-lymphocyte antigen as cysteine protease inhibitor” (Bayer Corporation, priority 1995, dated 1999)
